Where “and” joins values, the source holds several entries; their conditions need not be identical. Identical values can stand only once.
Biological target: T1, wild-type human ACE2 peptidase domain (PD) (human, UniProt Q9BYF1 19-615)
T1 construct: also called ACE2/WT; ACE2 WT
Assay: SPR
Details: both partners purified

T1 sequence (Q9BYF1 19-615): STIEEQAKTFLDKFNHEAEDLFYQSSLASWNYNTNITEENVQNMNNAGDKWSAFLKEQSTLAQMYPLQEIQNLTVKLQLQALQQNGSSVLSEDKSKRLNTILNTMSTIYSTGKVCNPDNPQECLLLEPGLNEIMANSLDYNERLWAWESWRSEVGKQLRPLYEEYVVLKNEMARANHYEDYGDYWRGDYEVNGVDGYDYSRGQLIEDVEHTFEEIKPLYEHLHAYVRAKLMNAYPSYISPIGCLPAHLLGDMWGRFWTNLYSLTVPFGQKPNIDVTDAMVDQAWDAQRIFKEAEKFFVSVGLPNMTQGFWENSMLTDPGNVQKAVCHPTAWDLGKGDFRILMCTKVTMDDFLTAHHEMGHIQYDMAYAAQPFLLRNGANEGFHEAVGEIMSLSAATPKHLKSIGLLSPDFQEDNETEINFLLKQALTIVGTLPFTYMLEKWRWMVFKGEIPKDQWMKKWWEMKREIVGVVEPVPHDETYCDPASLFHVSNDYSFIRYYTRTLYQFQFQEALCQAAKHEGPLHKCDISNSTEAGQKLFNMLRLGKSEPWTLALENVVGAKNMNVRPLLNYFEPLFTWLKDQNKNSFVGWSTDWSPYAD

B1: SARS-CoV spike receptor-binding domain (S-RBD), wild-type (domain or fragment)
chain: not shown
B1 was tested. Which Kd did it give?
The Kd was 523 nM and 971 nM and 500 nM.
